For one data set, the target named is T1, human Elastase (Homo sapiens, UniProt P08246).
T1 sequence (P08246 30-267): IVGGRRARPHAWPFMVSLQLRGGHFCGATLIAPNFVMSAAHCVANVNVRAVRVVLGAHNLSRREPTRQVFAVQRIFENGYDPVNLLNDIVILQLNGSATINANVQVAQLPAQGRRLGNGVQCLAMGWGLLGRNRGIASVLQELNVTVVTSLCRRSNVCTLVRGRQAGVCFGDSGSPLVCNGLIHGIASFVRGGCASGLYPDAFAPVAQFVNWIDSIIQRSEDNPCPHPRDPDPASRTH
Briefly: Elastase cleavability test. The format is biochemical. As to conditions: 5 μM test compound, 1 h at 37° C. As for the experimental part:
The test compound was added to buffer (150 mM NaCl, 10 mM CaCl2, 0.05% BSA) to a final concentration of 5 μM (0.5% DMSO). The reaction was started by adding different concentrations of human Elastase (0, 20, 40, 60 nM) to the reaction vials. After incubation for 1 h at 37° C., the enzymatic reaction was stopped by precipitation in 50% ACN. Subsequently, the samples were subjected to HPLC-MS analysis to determine the concentration of test compound and of its metabolite.

The nature of data set [1]: Pharmacokinetics in rat after intravenous administration. Type of data set: in vivo. The following applies: plasma, male rats, intravenous bolus 0.5 mg/kg; for clearance: read-out: CL plasma; for Vd: read-out: VSS. How it is done: Male rats (n=3) were given an intravenous 0.5 mg/kg bolus dose of test article dissolved in plasma with 1% DMSO and 2% ethanol. Serial blood samples were collected up to 24 hours post-dose. Plasma was harvested from blood samples and stored frozen until sample analysis. Test article plasma concentrations were analyzed by LC/MS/MS. Pharmacokinetic parameters were calculated using non-compartmental analysis.

Another data set can be described thus: Stability in rat plasma. Type of data set: in vitro ADME. As to conditions: 37° C., percent area of the initial compound at t0 (HPLC), read-out: Stability rat plasma after 4 h. As for the experimental part:
(§1) 1 mg of the respective test compound of is dissolved in a mixture of 1.5 mL dimethylsulfoxide and 1 ml water. For complete dissolution, the HPLC vial is shaken and treated with an ultrasound. 500 μl of this solution is added to 0.5 mL of plasma with vortexing at a temperature of 37° C. Aliquots (10 μL each) are taken at respective time points and analyzed by HPLC to determine the amount of the test compound. All data is given as percent area of the initial compound at to.

Data set [2] in a line: Stability in human plasma. As to conditions: 37° C., percent area of the initial compound at t0 (HPLC), read-out: Stability human plasma after 4 h. The format is in vitro ADME. How it is done:
as §1

A further data set can be described thus: Stability in buffer. Type of data set: physicochemical. The following applies: HPLC peak area in percentage. How it is done:
0.15 mg of the test compound are solved in 0.1 ml dimethylsulfoxide and 0.4 ml acetonitrile. For complete dissolution the HPLC vial with the sample solution is shaken and sonicated. Then 1.0 ml of the respective buffer solution is added, and the sample is vortexed. The sample solution is analysed by HPLC to determine the amount of the test compound and up to two byproducts at a particular time over a period of 24 h at 37° C. to values result from a sample immediately taken after vortexing with buffer at RT. The peak areas (in percentage) are used for quantification.

The next data set concerns 786-O. The data set can be described thus: Cytotoxicity in vitro in the presence and absence of elastase (MTT assay). The format is cell-based. As to conditions: 786-O cells, 72 h incubation. Put shortly:
(§2)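 Elastase dependence was tested by running each compound (10^−5 to 10^−13 M) side by side alone and with 10 nM NE for 72 h at 37 °C. Metabolic activity was assessed by MTT at 570 nm; automated runs report AC50 at −50% activity from a 4-parameter Hill fit with medium-only and DMSO controls as anchors.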
Background: Tetrazolium assays rely on reduction of a dye to a coloured formazan, in cell work by metabolically active cells.

The test system of the next data set is NCI-H292. The description is as above. Type of data set: cell-based. As to conditions: NCI-H292 cells, 72 h incubation. Put shortly: as §2
In the next data set the test system is HT29. The data set is described as above. The format is cell-based. The following applies: HT29 cells, 72 h incubation. In short, it runs like this: as §2
In the next data set the test system is SUM149PT. Described as above. As to conditions: SUM149PT cells, 72 h incubation. Type of data set: cell-based. Put shortly: as §2
[3] abbreviates: buffer pH 4, 37° C., read-out: Stability buffer pH 4 after 24 h.
[4] abbreviates: buffer pH 7.4, 37° C., read-out: Stability buffer pH 7.4 after 24 h.
The mark [5] stands for this setting: compound alone, read-out: IC50 without neutrophil elastase.
Setting [6] is: with 10 nM elastase (NE), read-out: IC50 with neutrophil elastase.

Usually AUC stands for the area under the concentration-time curve, a measure of exposure. By half-life is commonly meant how long it takes for the measured level to halve. Low values mean fast loss, high ones slow loss. Usually pIC50 stands for −log10 of the IC50, conventionally taken in molar units.

pIC50: −log10 of the molar value. Like-named read-outs stand apart in the source and are kept apart here. A value given as a limit tells only on which side of the number the result lay.

`CCCNC(=O)Nc1cccc(S(=O)(=O)Nc2cccc([C@@H](CC(=O)O)NC(=O)Nc3ccc(NC(=O)NCCOCCOCCOCCC(=O)N[C@@H](CC(=O)O)C(=O)N4CCC[C@H]4C(=O)N[C@H](C(=O)O[C@@H](c4ccccc4)[C@@H](C)NC(=O)[C@H](C)C(OC)[C@@H]4CCCN4C(=O)CC(OC)[C@H]([C@@H](C)CC)N(C)C(=O)[C@@H](NC(=O)[C@@H](NC)C(C)C)C(C)C)C(C)C)cc3)c2)c1` (some centres unmarked) [Compound 13]: on human Elastase (Elastase Concentration 0 nM), the “Payload release after 1 h” value is reported as “D (D = <1%)”. The “Payload release after 1 h” value on human Elastase (Elastase Concentration 20 nM) is “A (A = >70%)”. Further, in [1], the AUC was 1000 to 10000 ng·h/mL, the half-life was 1 to 5 h, the clearance is 0.5 to 5 mL/min/kg and the Vd is 0.1 to 0.3 L/kg. Also, the remaining at 4 h, 0.2 mg/mL in the data set “Stability in rat plasma” was found to be 100%. For the same molecule, in [2], the remaining at 4 h, 0.2 mg/mL is 100%. Besides, in “Stability in buffer” (setting [3]), the remaining at 24 h, 0.1 mg/mL was 92%. Further, in “Stability in buffer” (setting [4]), the remaining at 24 h, 0.1 mg/mL was found to be 100%.

For the molecule `CCCNC(=O)Nc1cccc(S(=O)(=O)Nc2cccc([C@@H](CC(=O)O)NC(=O)Nc3ccc(NC(=O)NCCOCCOCCOCCC(=O)N[C@@H](CC(N)=O)C(=O)N4CCC[C@H]4C(=O)N[C@H](C(=O)NCCCN(C(=O)CO)[C@@H](c4cc(-c5cc(F)ccc5F)cn4Cc4ccccc4)C(C)(C)C)C(C)C)cc3)c2)c1` [Compound 17, sodium N^2-(14-{4-[({(1R)-2-carboxylato-1-[3-({3-[(propylcarbamoyl)amino]benzene-1-sulfonyl}amino)phenyl]ethyl}carbamoyl)amino]anilino}-14-oxo-4,7,10-trioxa-13-azatetradecanan-1-oyl)-L-asparaginyl-L-prolyl-N-{3-[{(1R)-1-[1-benzyl-4-(2,5-difluorophenyl)-1H-pyrrol-2-yl]-2,2-dimethylpropyl}(hydroxyacetyl)amino]propyl}-L-valinamide], the figures for the “Payload release after 1 h” value at human Elastase (Elastase Concentration 0 nM) and on human Elastase (Elastase Concentration 20 nM) were “D (D = <1%)” and “C (C = >1%)”, respectively. The molecule further showed an AUC in data set [1] of 1000 to 10000 ng·h/mL. The molecule further registered a half-life in data set [1] of 5 to 10 h. For the same molecule, the clearance in data set [1] was 0.5 to 5 mL/min/kg. Further, in [1], the Vd is 0.3 to 0.9 L/kg. In addition, the remaining at 4 h, 0.2 mg/mL (in “Stability in rat plasma”; in data set [2]) was 100% in each case. The pIC50 is below 6.00 in the data set with 786-O (setting [5]); 8.00 to 9.00 with 786-O (setting [6]); 6.00 to 7.00 with NCI-H292 (setting [5]); 8.00 to 9.00 with NCI-H292 (setting [6]); below 6.00 in the data set with HT29 (setting [5]); 8.00 to 9.00 in the data set with HT29 (setting [6]). Also, the pIC50 with SUM149PT (setting [5]) is 6.00 to 7.00; with SUM149PT (setting [6]) it was 9.00 to 10.00. Moreover, in the data set “Stability in buffer” (setting [3]), the remaining at 24 h, 0.1 mg/mL came to 100%. Also, in the data set “Stability in buffer” (buffer pH 7.4, 37° C.), the “Stability buffer pH 7.4 after 24 h” value came out at 100%.

Consider `CCCNC(=O)Nc1cccc(S(=O)(=O)Nc2cccc([C@@H](CC(=O)O)NC(=O)Nc3ccc(NC(=O)NCCOCCOCCOCCC(=O)N[C@@H](CC(=O)O)C(=O)N4CCC[C@H]4C(=O)N[C@H](C(=O)N[C@@H](CCN(C(=O)CO)[C@@H](c4cc(-c5cc(F)ccc5F)cn4Cc4ccccc4)C(C)(C)C)C(=O)NC)C(C)C)cc3)c2)c1` [Compound 26, disodium 1-[(2S)-2-(carboxylatomethyl)-17-{4-[({(1R)-2-carboxylato-1-[3-({3-[(propylcarbamoyl)amino]benzene-1-sulfonyl}amino)phenyl]ethyl}carbamoyl)amino]anilino}-4,17-dioxo-7,10,13-trioxa-3,16-diazaheptadecanan-1-oyl]-L-prolyl-N-[(2S)-4-[{(1R)-1-[1-benzyl-4-(2,5-difluorophenyl)-1H-pyrrol-2-yl]-2,2-dimethylpropyl}(hydroxyacetyl)amino]-1-(methylamino)-1-oxobutan-2-yl]-L-valinamide], for which the “Payload release after 1 h” value is “D (D = <1%)” on human Elastase (Elastase Concentration 0 nM) and “B (B = >20%)” at human Elastase (Elastase Concentration 20 nM). Moreover, in data set [1], the AUC was 1000 to 10000 ng·h/mL. This molecule also returned a half-life in [1] below 0.5 h. The clearance in data set [1] was 0.5 to 5 mL/min/kg. For the same molecule, the Vd in data set [1] is 0.01 to 0.1 L/kg. The remaining at 4 h, 0.2 mg/mL (in “Stability in rat plasma”; in data set [2]) was 100% throughout. The pIC50 with NCI-H292 (setting [5]) was below 6.00; in the data set on NCI-H292 (setting [6]), 8.00 to 9.00; in the data set on HT29 (setting [5]), below 6.00; with HT29 (setting [6]), 8.00 to 9.00; in the data set on SUM149PT (setting [5]), below 6.00; in the data set with SUM149PT (setting [6]) it was 9.00 to 10.00. In addition, the remaining at 24 h, 0.1 mg/mL in the data set “Stability in buffer” (setting [3]) was found to be 94%; in the data set “Stability in buffer” (setting [4]) it was 100%.

For the origin of these results see patent US20260183405A1, “SMALL MOLECULE-DRUG-CONJUGATES CLEAVABLE IN A TUMOR MICROENVIRONMENT” (priority 2022, published 2026).
